Data on two sequences can be found in patent publication US20240392271.

The data set has as its system dXR (PTBP1 experiment; KRAB not stated in the excerpt) (synthetic construct). Description: cell_activity. The settings on record: mouse astrocytes, day 11.

Take “CAGCGGGGAUCCGACGAGCU / CAGCGGGGATCCGACGAGCT / AGCTCGTCGGATCCCCGCTG [gRNA spacer 28.10 ; PTBP1 target 28.10]”: the activity (PTBP1/total protein relative to NT) (no clear repression) turned out to be 0.945.
With “ACAGCAUCGUCCCAGACAUA / ACAGCATCGTCCCAGACATA / TATGTCTGGGACGATGCTGT [gRNA spacer 28.16 ; PTBP1 target 28.16]”, the activity (PTBP1/total protein relative to NT) came out at 0.464.
